Assay results taken from patent US20150104459A1.

B1: TCN-528 (5087_P17) (antibody, V domains shown)
VH: QVQLVQSGSEVKKPGASVKVSCKASGYTFTNYDINWIRQAPGQGLEWMGWINPNSGTTGSAQRFQGRVTITVDTSITTVYMELSSLRSDDTAIYYCARGRELLRLQHFLTDSQSERRDCFDPWGQGTLVTVSS
VL: DIQMTQSPSSLSASVGDRVTITCRANQDIGIYLNWYQQNPGKVPKLLLHGASSLQGGVPSRFSASGSGTDFTLTIHSLQPEDLATYYCQQSRRLPYTFGQGTRVELK
B2: TCN-546 (5089_L08) (antibody, V domains shown)
VH: QVQLQQWGAGLLKPSETLSLTCGVYGGSLSDYYWSWIRQPPGKGLEWIGEINHSGGTNYNPSLKRRVTISVDTSKKQFSLKMNSVTAADTAVYYCARGTDPDTEVYCRAGNCAAFDFWGQGTLVTVSS
VL: EIVLTQSPGTLSLSPGERATLSCRASHFVIGRAVAWYQQKPGQAPRLLIYGASSRATGIPDRFSGSGSGTDFTLTISRLETEDFAVFYCQHYGSSPRYAFGQGTKLEIK
B3: TCN-540 (5060_F05) (antibody, V domains shown)
VH: QVQLVQSGGGVVQPGRSLRLSCAASGFTFSSYAMHWVRQAPGKGLEWVAIISYDGNDQYYTDSVKGRFTISRDSSKVYLQMHRLRPEDTAVYYCAKEFETSGYFHGSFDYWGQGILVTVSS
VL: QSALTQPASVSGSPGQSITISCTGTSSDVGGYNYVSWYQQHPGKAPKLLIYEVTNWPSGVSNRFSGSKSGNTASLTISGLQAEDEADYYCSSYAGSSTWVFGGGTRVTVL
B4: TCN-557 (5081_A04) (antibody, V domains shown)
VH: QVQLVQSGAEVKKPGASVKVSCKASGHTFTGYYIHWVRQAPGQGLEWMGWINPDSGATSSAQNFQGRVTMTGDTSSSTAYMELSRLSFDDTAVYYCARVLFTSPFDFWGEGTLVTVSS
VL: QAVVTQEPSLAVSPGGTVTLTCGSSTGAVTRGHYPYWFQQKPGQAPRALIYDSAGNRHSWTPARFSGSLLGGKAALTLSGAQPEDEAEYYCLLSYSGVWVFGGGTKLTVL
B5: TCN-527 (5086_C06) (antibody, V domains shown)
VH: QVQLQESGPGLVKPSETLSLNCAVSGGSISNYYWSWIRQPPGKGLEWIGYISYNGRPKYNPSLTSRVTISVDTSKDQFSLELRSVTAADTALYYCARETRFGELLSPYDAFEIWGQGTMVTVSS
VL: DIQMTQSPSSLSASVGDRVTMTCRASQNIRSYLNWYQQRPGTAPKLLIYAASTLHSGVPSRFSGGGSGTDFTLTINNLQPEDFASYYCQQSYDNPQTFGQGTKVEIK
B6: TCN-555 (5246_L16) (antibody, V domains shown)
VH: QVQLVQSGAEVKRPGSSVKVSCTASGGIFRKNAISWVRQAPGQGLEWMGGIIAVFNTANYAQKFQNRVKITADESGNTAYMELSSLTSDDTAVYYCASHPKYFYGSGSYPDFWGQGTLVTVSS
VL: QSALTQPRSVSGSPGQSITISCTGGSSDIGASNSVSWYQQHPGKAPKLVIFDVTERPSGVPHRFSGSKSGNTASLTVSGLQPDDEADYFCCAYGGKYLVVFGGGTKVTVL
B7: TCN-543 (5081_G23) (antibody, V domains shown)
VH: QVHLVQSGAEVRKPGDSVKVSCKTSGYTFSTYPVAWVRQVPGQGLEWMGWISTYNGNTNFAQNFQGRVTLTTDTTTNTAYMEVRSLKFDDTAVYYCARVEGSYRDFWNNQNRFDPWGQGTLVTVSS
VL: SYVLTQPPSVSVAPGQTARISCGGSNIGGKSVHWYQQKPGQAPVLVVYDDSGRPSGIPERFSGSNSGDTATLTISRVEAGDEADYFCQVWDNFGGVFGTGTKVTVL
B8: TCN-558 (5248_H10b) (antibody, V domains shown)
VH: QVQLVQSGSEVKKPGTSVKVSCTASGSVFTNYGISWVRQAPGQGLEWMGGIIPLFGAAKYAQKFQGRVTITADESTKTVYMELSRLTSKDTAIYFCAKAPRVYEYYFDQWGQGTPVTVSS
VL: EIVMTQFPATLSVSPGERVTLSCRASQSVSNNLAWYQQKPGQPPRLLIYDASTRATGVPAKFSGTGSGTEFTLSISSLQSEDFAVYYCQQYHNWPPSYSFGLGTKLEIK

The binders below were run against recombinant soluble homotrimeric HA of A/Anhui/1/05 (H5N1) (Influenza A virus A/Anhui/1/2005 (H5N1)) (assay: HA microarray, BCC supernatant). Conditions: remark: other sources report otherwise.

Row | Binder | Trimeric HA Binding RLU [RLU]
1 | B1 | 49800
2 | B2 | 2040
3 | B3 | 25
4 | B4 | 46000
5 | B5 | 21400
6 | B6 | 1500

These binders were tested against recombinant soluble homotrimeric HA of A/California/4/09 (H1N1) (Influenza A virus A/California/04/2009 (H1N1)) (assay: HA microarray, BCC supernatant). Conditions: remark: other sources report otherwise.

Row | Binder | Trimeric HA Binding RLU [RLU]
7 | B1 | 48800
8 | B2 | 350
9 | B7 | 13100
10 | B3 | 57
11 | B4 | 17600
12 | B5 | 28000
13 | B6 | 44900

These binders were tested against recombinant soluble homotrimeric HA of A/Egypt/3300-NAMRU3/08 (H5N1) (Influenza A virus A/Egypt/3300-NAMRU3/2008 (H5N1)) (assay: HA microarray, BCC supernatant). Conditions: remark: other sources report otherwise.

Row | Binder | Trimeric HA Binding RLU [RLU]
14 | B3 | 1970
15 | B6 | 42700

What follows are binders tested against recombinant soluble homotrimeric HA of A/Hong Kong/2108/03 (H9N2) (Influenza A virus A/Hong Kong/2108/2003 (H9N2)) (assay: HA microarray, BCC supernatant). Conditions: remark: other sources report otherwise.

Row | Binder | Trimeric HA Binding RLU [RLU]
16 | B1 | 42000
17 | B2 | 13000
18 | B3 | 22
19 | B4 | 35300
20 | B5 | 16000

Each binder was assayed against recombinant soluble homotrimeric HA of A/Indonesia/5/05 (H5N1) (Influenza A virus A/Indonesia/5/2005 (H5N1)) (assay: HA microarray, BCC supernatant). Conditions: remark: other sources report otherwise.

Row | Binder | Trimeric HA Binding RLU [RLU]
21 | B1 | 42800
22 | B2 | 18400
23 | B3 | 31
24 | B4 | 45200
25 | B5 | 23800
26 | B6 | 34500

The binders below were run against recombinant soluble homotrimeric HA of A/Japan/305/57 (H2N2) (Influenza A virus A/Japan/305/1957 (H2N2)) (assay: HA microarray, BCC supernatant). Conditions: remark: other sources report otherwise.

Row | Binder | Trimeric HA Binding RLU [RLU]
27 | B1 | 46400
28 | B2 | 520
29 | B3 | 2970
30 | B4 | 43400
31 | B5 | 19300
32 | B6 | 2130

Each binder was assayed against recombinant soluble homotrimeric HA of A/Netherlands/219/03 (H7N7) (Influenza A virus A/Netherlands/219/03 (H7N7)) (assay: HA microarray, BCC supernatant). Conditions: remark: other sources report otherwise.

Row | Binder | Trimeric HA Binding RLU [RLU]
33 | B1 | 49300
34 | B7 | 661
35 | B3 | 381
36 | B4 | 6780
37 | B5 | 8890

Each binder was assayed against recombinant soluble homotrimeric HA of A/Solomon Islands/3/06 (H1N1) (Influenza A virus A/Solomon Islands/3/2006 (H1N1)) (assay: HA microarray, BCC supernatant). Conditions: remark: other sources report otherwise.

Row | Binder | Trimeric HA Binding RLU [RLU]
38 | B1 | 44800
39 | B7 | 511
40 | B3 | 64
41 | B4 | 40700
42 | B5 | 16500
43 | B6 | 26400

These binders were tested against recombinant soluble homotrimeric HA of A/Vietnam/1203/04 (H5N1) (Influenza A virus A/Vietnam/1203/2004 (H5N1)) (assay: HA microarray, BCC supernatant). Conditions: remark: other sources report otherwise.

Row | Binder | Trimeric HA Binding RLU [RLU]
44 | B1 | 45600
45 | B2 | 349
46 | B4 | 47300
47 | B5 | 21300
48 | B6 | 876

Each binder was assayed against recombinant soluble homotrimeric HA of A/Wisconsin/67/05 (H3N2) (Influenza A virus A/Wisconsin/67/2005 (H3N2)) (assay: HA microarray, BCC supernatant). Conditions: remark: other sources report otherwise.

Row | Binder | Trimeric HA Binding RLU [RLU]
49 | B1 | 48800
50 | B2 | 30200
51 | B7 | 1360
52 | B3 | 728
53 | B4 | 10200
54 | B5 | 5720
55 | B6 | 9800

Each binder was assayed against recombinant soluble homotrimeric HA of A/chicken/Vietnam/NCVD-016/08 (H5N1) (Influenza A virus A/chicken/Vietnam/NCVD-016/2008 (H5N1)) (assay: HA microarray, BCC supernatant). Conditions: remark: other sources report otherwise.

Row | Binder | Trimeric HA Binding RLU [RLU]
56 | B1 | 38200
57 | B2 | 421
58 | B3 | 70
59 | B4 | 45500
60 | B5 | 27000
61 | B6 | 22300

The binders below were run against recombinant soluble homotrimeric HA of A/duck/Yangzhou/02/2005 (H8N4) (Influenza A virus A/duck/Yangzhou/02/2005 (H8N4)) (assay: HA microarray, BCC supernatant). Conditions: remark: other sources report otherwise.

Row | Binder | Trimeric HA Binding RLU [RLU]
62 | B1 | 38400
63 | B3 | 117
64 | B4 | 50100
65 | B5 | 28800
66 | B6 | 18400

Each binder was assayed against recombinant soluble homotrimeric HA of A/northern shoveler/California/HKWF115/2007 (H6N1) (Influenza A virus A/northern shoveler/California/HKWF115/2007 (H6N1)) (assay: HA microarray, BCC supernatant). Conditions: remark: other sources report otherwise.

Row | Binder | Trimeric HA Binding RLU [RLU]
67 | B1 | 46800
68 | B3 | 131
69 | B4 | 24400
70 | B5 | 30300
71 | B6 | 49500

What follows are binders tested against recombinant soluble homotrimeric HA of A/swine/Ontario/01911-2/99 (H4N6) (Influenza A virus A/Swine/Ontario/01911-2/99 (H4N6)) (assay: HA microarray, BCC supernatant). Conditions: remark: other sources report otherwise.

Row | Binder | Trimeric HA Binding RLU [RLU]
72 | B1 | 47500
73 | B4 | 27000
74 | B5 | 7690
75 | B6 | 1950

What follows are binders tested against recombinant soluble homotrimeric HA, A/Anhui/1/05 (H5N1) (influenza A virus A/Anhui/1/2005 (H5N1)) (assay: microarray, trimeric HA, transfection supernatant). Conditions: remark: other sources report otherwise.

Row | Binder | Trimeric HA Binding RLU [RLU]
76 | B2 | 33300
77 | B3 | 2190
78 | B4 | 20000

These binders were tested against recombinant soluble homotrimeric HA, A/Hong Kong/156/97 (H5N1) (influenza A virus A/Hong Kong/156/97 (H5N1)) (assay: microarray, trimeric HA, transfection supernatant). Conditions: remark: other sources report otherwise.

Row | Binder | Trimeric HA Binding RLU [RLU]
79 | B2 | 1240
80 | B7 | 1430
81 | B3 | 1550
82 | B4 | 27100
83 | B6 | 36300

These binders were tested against recombinant soluble homotrimeric HA, A/Netherlands/219/03 (H7N7) (influenza A virus A/Netherlands/219/03 (H7N7)) (assay: microarray, trimeric HA, transfection supernatant). Conditions: remark: other sources report otherwise.

Row | Binder | Trimeric HA Binding RLU [RLU]
84 | B7 | 12900
85 | B3 | 4390
86 | B8 | 5840
87 | B4 | 53700

What follows are binders tested against recombinant soluble homotrimeric HA, A/chicken/Vietnam/NCVD-016/08 (H5N1) (influenza A virus A/chicken/Vietnam/NCVD-016/2008 (H5N1)) (assay: microarray, trimeric HA, transfection supernatant). Conditions: remark: other sources report otherwise.

Row | Binder | Trimeric HA Binding RLU [RLU]
88 | B2 | 2940
89 | B7 | 5880
90 | B3 | 1510
91 | B8 | 33400
92 | B4 | 23300
93 | B6 | 35200

These binders were tested against recombinant soluble homotrimeric HA, A/duck/Yangzhou/02/2005 (H8N4) (influenza A virus A/duck/Yangzhou/02/2005 (H8N4)) (assay: microarray, trimeric HA, transfection supernatant). Conditions: remark: other sources report otherwise.

Row | Binder | Trimeric HA Binding RLU [RLU]
94 | B2 | 11400
95 | B7 | 13100
96 | B3 | 6080
97 | B4 | 24000

The binders below were run against recombinant soluble homotrimeric HA, A/northern shoveler/California/HKWF115/2007 (H6N1) (influenza A virus A/northern shoveler/California/HKWF115/2007 (H6N1)) (assay: microarray, trimeric HA, transfection supernatant). Conditions: remark: other sources report otherwise.

Row | Binder | Trimeric HA Binding RLU [RLU]
98 | B3 | 2460
99 | B8 | 29400
100 | B4 | 49600
101 | B6 | 28700

These binders were tested against recombinant homotrimeric HA, A/swine/Ontario/01911-2/99 H4N6 (Influenza A virus A/swine/Ontario/01911-2/99 (H4N6)) (assay: trimeric HA microarray; transfection supernatant set 5). Conditions: remark: other sources report otherwise.

Row | Binder | Trimeric HA Binding: RLU [RLU]
102 | B6 | 4520
